Literature values in paper PMC3433420.
Where two headings read alike, the source gives them in different places.

Assays:
Settings in all cases: cited from earlier work
ABL2 (Homo sapiens) [1] = molecular target: ABL2 (Homo sapiens) (UniProt P42684)
SLA (Homo sapiens) = SLA (Homo sapiens) (UniProt Q13239)
PLCG2-NC (Homo sapiens) [2] = molecular target: PLCG2-NC (Homo sapiens) (UniProt P16885)
PIK3R3-NC (Homo sapiens) [3] = molecular target: PIK3R3-NC (Homo sapiens) (UniProt Q92569)
RASA1-N (Homo sapiens) [4] = molecular target: RASA1-N (Homo sapiens) (UniProt P20936)
RASA1-NC (Homo sapiens) [5] = molecular target: RASA1-NC (Homo sapiens) (UniProt P20936)
GRB7 (Homo sapiens) [6] = molecular target: GRB7 (Homo sapiens) (UniProt Q14451)
PLCG2-N (Homo sapiens) = PLCG2-N (Homo sapiens) (UniProt P16885)
YES1 (Homo sapiens) [7] = molecular target: YES1 (Homo sapiens) (UniProt P07947)
RASA1-NC (Homo sapiens) [8] = molecular target: RASA1-NC (Homo sapiens) (UniProt P20936); remark: listed apart in the source
BLK (Homo sapiens) = BLK (Homo sapiens) (UniProt P51451)
PLCG2-NC (Homo sapiens) [9] = molecular target: PLCG2-NC (Homo sapiens) (UniProt P16885); remark: listed apart in the source
ABL2 (Homo sapiens) [10] = molecular target: ABL2 (Homo sapiens) (UniProt P42684); remark: listed apart in the source
PIK3R2-NC (Homo sapiens) [11] = molecular target: PIK3R2-NC (Homo sapiens) (UniProt O00459)
PIK3R3-N (Homo sapiens) [12] = molecular target: PIK3R3-N (Homo sapiens) (UniProt Q92569)
PIK3R1-NC (Homo sapiens) [13] = molecular target: PIK3R1-NC (Homo sapiens) (UniProt P27986)
PIK3R1-N (Homo sapiens) [14] = molecular target: PIK3R1-N (Homo sapiens) (UniProt P27986)
PIK3R3-NC (Homo sapiens) [15] = molecular target: PIK3R3-NC (Homo sapiens) (UniProt Q92569); remark: listed apart in the source
PIK3R2-N (Homo sapiens) = PIK3R2-N (Homo sapiens) (UniProt O00459)
PIK3R3-NC (Homo sapiens) [16] = molecular target: PIK3R3-NC (Homo sapiens) (UniProt Q92569); remark: listed apart in the source
PIK3R2-NC (Homo sapiens) [17] = molecular target: PIK3R2-NC (Homo sapiens) (UniProt O00459); remark: listed apart in the source
PIK3R1-NC (Homo sapiens) [18] = molecular target: PIK3R1-NC (Homo sapiens) (UniProt P27986); remark: listed apart in the source
RASA1-N (Homo sapiens) [19] = molecular target: RASA1-N (Homo sapiens) (UniProt P20936); remark: listed apart in the source
PIK3R3-C (Homo sapiens) = PIK3R3-C (Homo sapiens) (UniProt Q92569)
PIK3R3-N (Homo sapiens) [20] = molecular target: PIK3R3-N (Homo sapiens) (UniProt Q92569); remark: listed apart in the source
VAV1 (Homo sapiens) [21] = molecular target: VAV1 (Homo sapiens) (UniProt P15498)
PIK3R1-N (Homo sapiens) [22] = molecular target: PIK3R1-N (Homo sapiens) (UniProt P27986); remark: listed apart in the source
ABL2 (Homo sapiens) [23] = molecular target: ABL2 (Homo sapiens) (UniProt P42684); remark: listed apart in the source
SYK-NC (Homo sapiens) [24] = molecular target: SYK-NC (Homo sapiens) (UniProt P43405)
TENC1 (Homo sapiens) [25] = molecular target: TENC1 (Homo sapiens) (UniProt Q63HR2)
RASA1-C (Homo sapiens) = RASA1-C (Homo sapiens) (UniProt P20936)
SHC1-PTB (Homo sapiens) [26] = molecular target: SHC1-PTB (Homo sapiens) (UniProt P29353)
VAV1 (Homo sapiens) [27] = molecular target: VAV1 (Homo sapiens) (UniProt P15498); remark: listed apart in the source
RASA1-NC (Homo sapiens) [28] = molecular target: RASA1-NC (Homo sapiens) (UniProt P20936); remark: listed apart in the source
GRB7 (Homo sapiens) [29] = molecular target: GRB7 (Homo sapiens) (UniProt Q14451); remark: listed apart in the source
SYK-NC (Homo sapiens) [30] = molecular target: SYK-NC (Homo sapiens) (UniProt P43405); remark: listed apart in the source
TNS3 (Homo sapiens) = TNS3 (Homo sapiens) (UniProt Q68CZ2)
SHB (Homo sapiens) [31] = molecular target: SHB (Homo sapiens) (UniProt Q15464)
NCK2 (Homo sapiens) = NCK2 (Homo sapiens) (UniProt O43639)
SRC (Homo sapiens) = SRC (Homo sapiens) (UniProt P12931)
SHF (Homo sapiens) = SHF (Homo sapiens) (UniProt Q7M4L6)
SHE (Homo sapiens) = SHE (Homo sapiens) (UniProt Q5VZ18)
YES1 (Homo sapiens) [32] = molecular target: YES1 (Homo sapiens) (UniProt P07947); remark: listed apart in the source
SH2D1B (Homo sapiens) = SH2D1B (Homo sapiens) (UniProt O14796)
TENC1 (Homo sapiens) [33] = molecular target: TENC1 (Homo sapiens) (UniProt Q63HR2); remark: listed apart in the source
ABL2 (Homo sapiens) [34] = molecular target: ABL2 (Homo sapiens) (UniProt P42684); remark: listed apart in the source
VAV2 (Homo sapiens) = VAV2 (Homo sapiens) (UniProt P52735)
PIK3R3-NC (Homo sapiens) [35] = molecular target: PIK3R3-NC (Homo sapiens) (UniProt Q92569); remark: listed apart in the source
SH2D3C (Homo sapiens) = SH2D3C (Homo sapiens) (UniProt Q8N5H7)
PIK3R1-NC (Homo sapiens) [36] = molecular target: PIK3R1-NC (Homo sapiens) (UniProt P27986); remark: listed apart in the source
GRB10 (Homo sapiens) = GRB10 (Homo sapiens) (UniProt Q13322)
ITK (Homo sapiens) = ITK (Homo sapiens) (UniProt Q08881)
PIK3R1-C (Homo sapiens) = PIK3R1-C (Homo sapiens) (UniProt P27986)
VAV3 (Homo sapiens) = VAV3 (Homo sapiens) (UniProt Q9UKW4)
ABL2 (Homo sapiens) [37] = molecular target: ABL2 (Homo sapiens) (UniProt P42684); remark: listed apart in the source
SHC1-PTB (Homo sapiens) [38] = molecular target: SHC1-PTB (Homo sapiens) (UniProt P29353); remark: listed apart in the source
SHB (Homo sapiens) [39] = molecular target: SHB (Homo sapiens) (UniProt Q15464); remark: listed apart in the source
YES1 (Homo sapiens) [40] = molecular target: YES1 (Homo sapiens) (UniProt P07947); remark: listed apart in the source
ABL2 (Homo sapiens) [41] = molecular target: ABL2 (Homo sapiens) (UniProt P42684); remark: listed apart in the source

Sequence of ABL2 (Homo sapiens) (P42684 168-268): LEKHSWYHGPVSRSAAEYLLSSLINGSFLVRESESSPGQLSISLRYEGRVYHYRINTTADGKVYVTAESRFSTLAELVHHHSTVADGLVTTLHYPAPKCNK
Sequence of PIK3R1-NC (Homo sapiens) (P27986 328-723): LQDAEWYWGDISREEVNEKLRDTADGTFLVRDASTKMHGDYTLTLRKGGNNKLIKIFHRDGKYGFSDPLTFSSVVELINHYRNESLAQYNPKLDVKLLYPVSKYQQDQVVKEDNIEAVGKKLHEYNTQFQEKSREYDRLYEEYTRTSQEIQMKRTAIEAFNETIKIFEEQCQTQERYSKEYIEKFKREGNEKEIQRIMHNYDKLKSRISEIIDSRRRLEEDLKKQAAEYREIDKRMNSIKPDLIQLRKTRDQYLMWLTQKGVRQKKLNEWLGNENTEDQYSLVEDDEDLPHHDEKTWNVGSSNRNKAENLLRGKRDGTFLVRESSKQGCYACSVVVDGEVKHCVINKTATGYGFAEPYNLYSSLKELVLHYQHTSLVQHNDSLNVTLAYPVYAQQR
Sequence of YES1 (Homo sapiens) (P07947 153-260): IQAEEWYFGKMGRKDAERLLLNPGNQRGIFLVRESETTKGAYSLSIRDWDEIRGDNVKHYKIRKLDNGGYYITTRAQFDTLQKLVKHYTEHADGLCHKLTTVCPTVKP
Sequence of RASA1-NC (Homo sapiens) (P20936 176-446): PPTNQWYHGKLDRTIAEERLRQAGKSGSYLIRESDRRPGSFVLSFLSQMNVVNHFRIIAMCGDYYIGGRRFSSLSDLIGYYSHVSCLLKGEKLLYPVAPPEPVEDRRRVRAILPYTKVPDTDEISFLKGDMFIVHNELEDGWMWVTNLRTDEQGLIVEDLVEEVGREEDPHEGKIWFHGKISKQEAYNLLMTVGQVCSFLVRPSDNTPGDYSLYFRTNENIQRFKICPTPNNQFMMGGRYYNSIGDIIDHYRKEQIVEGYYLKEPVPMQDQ
Sequence of PIK3R1-N (Homo sapiens) (P27986 328-723): as the sequence (P27986 328-723) above
Sequence of SHC1-PTB (Homo sapiens) (P29353 483-583): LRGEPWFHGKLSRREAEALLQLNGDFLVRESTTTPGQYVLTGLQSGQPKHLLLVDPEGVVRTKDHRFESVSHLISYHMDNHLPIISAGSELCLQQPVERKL
Sequence of PLCG2-NC (Homo sapiens) (P16885 527-740): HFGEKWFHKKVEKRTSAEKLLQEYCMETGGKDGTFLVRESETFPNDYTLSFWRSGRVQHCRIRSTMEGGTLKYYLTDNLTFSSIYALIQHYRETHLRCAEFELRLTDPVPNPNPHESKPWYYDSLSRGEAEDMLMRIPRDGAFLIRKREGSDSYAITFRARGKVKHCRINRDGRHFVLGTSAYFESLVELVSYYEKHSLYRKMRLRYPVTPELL
Sequence of SHB (Homo sapiens) (Q15464 405-509): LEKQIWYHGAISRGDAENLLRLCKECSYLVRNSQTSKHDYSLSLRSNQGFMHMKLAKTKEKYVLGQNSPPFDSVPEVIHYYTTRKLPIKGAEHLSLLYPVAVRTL
Sequence of VAV1 (Homo sapiens) (P15498 666-770): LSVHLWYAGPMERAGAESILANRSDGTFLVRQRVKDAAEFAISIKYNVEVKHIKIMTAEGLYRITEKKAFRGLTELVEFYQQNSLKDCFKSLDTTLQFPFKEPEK
Sequence of PIK3R2-NC (Homo sapiens) (O00459 325-721): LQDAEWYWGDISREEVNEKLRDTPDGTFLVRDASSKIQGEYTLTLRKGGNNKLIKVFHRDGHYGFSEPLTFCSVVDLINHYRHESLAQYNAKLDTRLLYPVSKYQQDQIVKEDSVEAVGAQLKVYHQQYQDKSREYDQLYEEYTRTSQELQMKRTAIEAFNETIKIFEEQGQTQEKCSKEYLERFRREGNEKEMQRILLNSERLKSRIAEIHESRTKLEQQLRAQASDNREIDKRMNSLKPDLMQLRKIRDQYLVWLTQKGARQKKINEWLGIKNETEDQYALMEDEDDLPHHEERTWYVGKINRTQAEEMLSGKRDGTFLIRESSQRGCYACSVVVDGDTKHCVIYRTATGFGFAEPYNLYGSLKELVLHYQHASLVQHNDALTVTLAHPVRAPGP
Sequence of GRB7 (Homo sapiens) (Q14451 426-532): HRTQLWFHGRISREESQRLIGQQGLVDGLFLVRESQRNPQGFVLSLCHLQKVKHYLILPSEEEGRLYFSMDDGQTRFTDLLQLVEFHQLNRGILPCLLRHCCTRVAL
Sequence of TENC1 (Homo sapiens) (Q63HR2 1135-1252): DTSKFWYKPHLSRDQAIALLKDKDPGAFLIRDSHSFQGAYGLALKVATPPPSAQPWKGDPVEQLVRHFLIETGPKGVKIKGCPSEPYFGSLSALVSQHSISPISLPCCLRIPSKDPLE
Sequence of RASA1-N (Homo sapiens) (P20936 176-446): as the sequence (P20936 176-446) above
Sequence of SHF (Homo sapiens) (Q7M4L6 318-423): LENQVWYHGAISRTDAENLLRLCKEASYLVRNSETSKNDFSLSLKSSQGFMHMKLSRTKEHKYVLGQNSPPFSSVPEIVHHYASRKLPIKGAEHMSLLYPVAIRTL
Sequence of SH2D3C (Homo sapiens) (Q8N5H7 215-324): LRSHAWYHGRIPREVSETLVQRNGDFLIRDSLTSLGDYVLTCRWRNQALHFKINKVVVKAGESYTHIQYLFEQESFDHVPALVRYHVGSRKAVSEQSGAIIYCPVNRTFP
Sequence of PIK3R1-C (Homo sapiens) (P27986 328-723): as the sequence (P27986 328-723) above
Sequence of PLCG2-N (Homo sapiens) (P16885 527-740): as the sequence (P16885 527-740) above
Sequence of VAV2 (Homo sapiens) (P52735 668-772): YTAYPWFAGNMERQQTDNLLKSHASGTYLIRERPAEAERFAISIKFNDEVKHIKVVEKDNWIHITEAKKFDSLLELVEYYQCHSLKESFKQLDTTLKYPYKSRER
Sequence of BLK (Homo sapiens) (P51451 119-225): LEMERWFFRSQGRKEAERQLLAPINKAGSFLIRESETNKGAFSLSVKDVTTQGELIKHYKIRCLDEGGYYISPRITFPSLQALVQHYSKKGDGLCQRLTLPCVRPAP
Sequence of TNS3 (Homo sapiens) (Q68CZ2 1167-1287): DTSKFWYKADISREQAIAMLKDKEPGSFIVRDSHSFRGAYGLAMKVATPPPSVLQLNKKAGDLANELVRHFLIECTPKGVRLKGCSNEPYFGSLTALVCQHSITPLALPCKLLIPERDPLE
Sequence of GRB10 (Homo sapiens) (Q13322 488-579): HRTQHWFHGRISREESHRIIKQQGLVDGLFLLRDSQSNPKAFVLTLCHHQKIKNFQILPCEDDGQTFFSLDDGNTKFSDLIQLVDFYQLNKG
Sequence of NCK2 (Homo sapiens) (O43639 280-380): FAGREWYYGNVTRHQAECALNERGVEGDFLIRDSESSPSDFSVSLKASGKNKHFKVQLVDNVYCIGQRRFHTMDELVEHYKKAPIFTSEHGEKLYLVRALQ
Sequence of SH2D1B (Homo sapiens) (O14796 1-106): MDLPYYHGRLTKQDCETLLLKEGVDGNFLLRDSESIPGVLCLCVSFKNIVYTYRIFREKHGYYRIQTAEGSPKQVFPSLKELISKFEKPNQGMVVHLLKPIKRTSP
Sequence of PIK3R2-N (Homo sapiens) (O00459 325-721): as the sequence (O00459 325-721) above
Sequence of VAV3 (Homo sapiens) (Q9UKW4 667-771): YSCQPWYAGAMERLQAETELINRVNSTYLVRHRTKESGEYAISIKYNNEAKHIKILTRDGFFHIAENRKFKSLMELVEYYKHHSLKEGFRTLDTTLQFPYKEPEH
Sequence of ITK (Homo sapiens) (Q08881 234-343): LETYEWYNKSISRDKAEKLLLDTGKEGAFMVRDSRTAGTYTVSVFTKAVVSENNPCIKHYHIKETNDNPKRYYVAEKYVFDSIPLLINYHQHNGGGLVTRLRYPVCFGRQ
Sequence of SHE (Homo sapiens) (Q5VZ18 390-495): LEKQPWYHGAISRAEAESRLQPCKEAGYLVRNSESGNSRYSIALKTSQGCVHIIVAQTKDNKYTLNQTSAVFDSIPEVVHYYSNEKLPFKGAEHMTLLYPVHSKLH
Sequence of SLA (Homo sapiens) (Q13239 79-180): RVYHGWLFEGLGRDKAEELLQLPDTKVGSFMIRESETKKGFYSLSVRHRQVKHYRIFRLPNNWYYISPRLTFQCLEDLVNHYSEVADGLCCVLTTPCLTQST
Sequence of RASA1-C (Homo sapiens) (P20936 176-446): as the sequence (P20936 176-446) above

For …pYMDVGSDL, the apparent Kd (screen) (ABL2 (Homo sapiens) [1]) is given as 1130 nM, the apparent Kd (screen) (SLA (Homo sapiens)) is given as 2000 nM and the apparent Kd (screen) (PLCG2-NC (Homo sapiens) [2]) is given as 2000 nM. The apparent Kd (screen) (PIK3R3-NC (Homo sapiens) [3]) was 1510 nM, the apparent Kd (screen) (RASA1-N (Homo sapiens) [4]) was 2000 nM and the apparent Kd (screen) (RASA1-NC (Homo sapiens) [5]) was 2000 nM.
For …pYHADGGKVd, the apparent Kd (screen) (GRB7 (Homo sapiens) [6]) is given as 1200 nM, the apparent Kd (screen) (PLCG2-N (Homo sapiens)) is given as 647 nM and the apparent Kd (screen) (YES1 (Homo sapiens) [7]) is given as 1890 nM. The apparent Kd (screen) (RASA1-NC (Homo sapiens) [8]) was 1400 nM, the apparent Kd (screen) (BLK (Homo sapiens)) was 718 nM and the apparent Kd (screen) (PLCG2-NC (Homo sapiens) [9]) was 1100 nM.
In the case of …pYTPMSGNQd, the apparent Kd (screen) (ABL2 (Homo sapiens) [10]) is listed as 659 nM, the apparent Kd (screen) (PIK3R2-NC (Homo sapiens) [11]) is listed as 461 nM and the apparent Kd (screen) (PIK3R3-N (Homo sapiens) [12]) is listed as 888 nM. The apparent Kd (screen) (PIK3R1-NC (Homo sapiens) [13]) was 1440 nM, the apparent Kd (screen) (PIK3R1-N (Homo sapiens) [14]) was 541 nM and the apparent Kd (screen) (PIK3R3-NC (Homo sapiens) [15]) was 576 nM. For the same substance, the apparent Kd (screen) (PIK3R2-N (Homo sapiens)) was 201 nM.
In the case of …pYEYMDVGS, the apparent Kd (screen) (PIK3R3-NC (Homo sapiens) [16]) is listed as 97 nM, the apparent Kd (screen) (PIK3R2-NC (Homo sapiens) [17]) is listed as 385 nM and the apparent Kd (screen) (PIK3R1-NC (Homo sapiens) [18]) is listed as 375 nM. For the same substance, the apparent Kd (screen) (RASA1-N (Homo sapiens) [19]) was 671 nM, the apparent Kd (screen) (PIK3R3-C (Homo sapiens)) was 270 nM and the apparent Kd (screen) (PIK3R3-N (Homo sapiens) [20]) was 553 nM. The apparent Kd (screen) (VAV1 (Homo sapiens) [21]) was 2000 nM, the apparent Kd (screen) (PIK3R1-N (Homo sapiens) [22]) was 1250 nM and the apparent Kd (screen) (ABL2 (Homo sapiens) [23]) was 158 nM. For the same substance, the apparent Kd (screen) (SYK-NC (Homo sapiens) [24]) was 851 nM and the apparent Kd (screen) (TENC1 (Homo sapiens) [25]) was 903 nM.
In the case of …pYLLNWCVQd, the apparent Kd (screen) (RASA1-C (Homo sapiens)) is given as 1950 nM, the apparent Kd (screen) (SHC1-PTB (Homo sapiens) [26]) is given as 1500 nM and the apparent Kd (screen) (VAV1 (Homo sapiens) [27]) is given as 373 nM. For the same substance, the apparent Kd (screen) (RASA1-NC (Homo sapiens) [28]) was 155 nM, the apparent Kd (screen) (GRB7 (Homo sapiens) [29]) was 456 nM and the apparent Kd (screen) (SYK-NC (Homo sapiens) [30]) was 240 nM. The apparent Kd (screen) (TNS3 (Homo sapiens)) was 1890 nM, the apparent Kd (screen) (SHB (Homo sapiens) [31]) was 276 nM and the apparent Kd (screen) (NCK2 (Homo sapiens)) was 195 nM. For the same substance, the apparent Kd (screen) (SRC (Homo sapiens)) was 84 nM, the apparent Kd (screen) (SHF (Homo sapiens)) was 1060 nM and the apparent Kd (screen) (SHE (Homo sapiens)) was 1380 nM. The apparent Kd (screen) (YES1 (Homo sapiens) [32]) was 22 nM, the apparent Kd (screen) (SH2D1B (Homo sapiens)) was 1600 nM and the apparent Kd (screen) (TENC1 (Homo sapiens) [33]) was 1140 nM. The apparent Kd (screen) (ABL2 (Homo sapiens) [34]) was 201 nM, the apparent Kd (screen) (VAV2 (Homo sapiens)) was 472 nM and the apparent Kd (screen) (PIK3R3-NC (Homo sapiens) [35]) was 1870 nM. For the same substance, the apparent Kd (screen) (SH2D3C (Homo sapiens)) was 52 nM, the apparent Kd (screen) (PIK3R1-NC (Homo sapiens) [36]) was 1820 nM and the apparent Kd (screen) (GRB10 (Homo sapiens)) was 353 nM. The apparent Kd (screen) (ITK (Homo sapiens)) was 310 nM, the apparent Kd (screen) (PIK3R1-C (Homo sapiens)) was 1850 nM and the apparent Kd (screen) (VAV3 (Homo sapiens)) was 960 nM.
For …pYWNHSLPPd, the apparent Kd (screen) (ABL2 (Homo sapiens) [37]) is listed as 34 nM and the apparent Kd (screen) (SHC1-PTB (Homo sapiens) [38]) is listed as 509 nM.
In the case of …pYSSDPTGAd, the apparent Kd (screen) (SHB (Homo sapiens) [39]) is given as 862 nM, the apparent Kd (screen) (YES1 (Homo sapiens) [40]) is given as 295 nM and the apparent Kd (screen) (ABL2 (Homo sapiens) [41]) is given as 2000 nM.
